The labels stand for the following.
B1: equine IgG4 D312P (antibody, part only; not given: Variable domains, not shown: another chain or arm of the molecule)
constant: ASTTAPKVFPLASHSAATSGSTVALGCLVSSYFPEPVTVSWNSGALTSGVHTFPSVLQSSGLYSLSSMVTVPASSLKSQTYICNVAHPASSTKVDKKIVIKECNGGCPAECLQVGPSVFIFPPKPKDVLMISRTPTVTCVVVDVGHDFPDVQFNWYVDGVETHTATTEPKQEQFNSTYRVVSVLPIQHKPWLSGKEFKCKVNNKALPAPVERTISKPTGQPREPQVYVLAPHRDELSKNKVSVTCLVKDFYPTDIDIEWKSNGQPEPETKYSTTPAQLDSDGSYFLYSKLTVETNRWQQGTTFTCAVMHEALHNHYTEKSVSKSPGK
B2: equine IgG4 D312T (antibody, part only; not given: variable domains, not shown: another chain or arm of the molecule)
constant: ASTTAPKVFPLASHSAATSGSTVALGCLVSSYFPEPVTVSWNSGALTSGVHTFPSVLQSSGLYSLSSMVTVPASSLKSQTYICNVAHPASSTKVDKKIVIKECNGGCPAECLQVGPSVFIFPPKPKDVLMISRTPTVTCVVVDVGHDFPDVQFNWYVDGVETHTATTEPKQEQFNSTYRVVSVLPIQHKTWLSGKEFKCKVNNKALPAPVERTISKPTGQPREPQVYVLAPHRDELSKNKVSVTCLVKDFYPTDIDIEWKSNGQPEPETKYSTTPAQLDSDGSYFLYSKLTVETNRWQQGTTFTCAVMHEALHNHYTEKSVSKSPGK
B3: equine IgG4 D312S (antibody, part only; not given: variable domains, not shown: another chain or arm of the molecule)
constant: ASTTAPKVFPLASHSAATSGSTVALGCLVSSYFPEPVTVSWNSGALTSGVHTFPSVLQSSGLYSLSSMVTVPASSLKSQTYICNVAHPASSTKVDKKIVIKECNGGCPAECLQVGPSVFIFPPKPKDVLMISRTPTVTCVVVDVGHDFPDVQFNWYVDGVETHTATTEPKQEQFNSTYRVVSVLPIQHKSWLSGKEFKCKVNNKALPAPVERTISKPTGQPREPQVYVLAPHRDELSKNKVSVTCLVKDFYPTDIDIEWKSNGQPEPETKYSTTPAQLDSDGSYFLYSKLTVETNRWQQGTTFTCAVMHEALHNHYTEKSVSKSPGK
B4: equine IgG4 D312V (antibody, part only; not given: variable domains, not shown: another chain or arm of the molecule)
constant: ASTTAPKVFPLASHSAATSGSTVALGCLVSSYFPEPVTVSWNSGALTSGVHTFPSVLQSSGLYSLSSMVTVPASSLKSQTYICNVAHPASSTKVDKKIVIKECNGGCPAECLQVGPSVFIFPPKPKDVLMISRTPTVTCVVVDVGHDFPDVQFNWYVDGVETHTATTEPKQEQFNSTYRVVSVLPIQHKVWLSGKEFKCKVNNKALPAPVERTISKPTGQPREPQVYVLAPHRDELSKNKVSVTCLVKDFYPTDIDIEWKSNGQPEPETKYSTTPAQLDSDGSYFLYSKLTVETNRWQQGTTFTCAVMHEALHNHYTEKSVSKSPGK
B5: equine IgG4 D312Q (antibody, part only; not given: variable domains, not shown: another chain or arm of the molecule)
constant: ASTTAPKVFPLASHSAATSGSTVALGCLVSSYFPEPVTVSWNSGALTSGVHTFPSVLQSSGLYSLSSMVTVPASSLKSQTYICNVAHPASSTKVDKKIVIKECNGGCPAECLQVGPSVFIFPPKPKDVLMISRTPTVTCVVVDVGHDFPDVQFNWYVDGVETHTATTEPKQEQFNSTYRVVSVLPIQHKQWLSGKEFKCKVNNKALPAPVERTISKPTGQPREPQVYVLAPHRDELSKNKVSVTCLVKDFYPTDIDIEWKSNGQPEPETKYSTTPAQLDSDGSYFLYSKLTVETNRWQQGTTFTCAVMHEALHNHYTEKSVSKSPGK
B6: equine IgG4 D312R (antibody, part only; not given: variable domains, not shown: another chain or arm of the molecule)
constant: ASTTAPKVFPLASHSAATSGSTVALGCLVSSYFPEPVTVSWNSGALTSGVHTFPSVLQSSGLYSLSSMVTVPASSLKSQTYICNVAHPASSTKVDKKIVIKECNGGCPAECLQVGPSVFIFPPKPKDVLMISRTPTVTCVVVDVGHDFPDVQFNWYVDGVETHTATTEPKQEQFNSTYRVVSVLPIQHKRWLSGKEFKCKVNNKALPAPVERTISKPTGQPREPQVYVLAPHRDELSKNKVSVTCLVKDFYPTDIDIEWKSNGQPEPETKYSTTPAQLDSDGSYFLYSKLTVETNRWQQGTTFTCAVMHEALHNHYTEKSVSKSPGK

The target of the assay is equine FcRn (large alpha subunit p51) / equine beta-2-microglobulin complex, biotinylated (equine) (UniProt P30441). The assay is described as follows: SPR (Biacore), pH 6. Background: In SPR one partner is held on a chip, and binding of the other changes the refractive index at the surface.
UniProt P30441, sequence (P30441 21-118, one chain of several): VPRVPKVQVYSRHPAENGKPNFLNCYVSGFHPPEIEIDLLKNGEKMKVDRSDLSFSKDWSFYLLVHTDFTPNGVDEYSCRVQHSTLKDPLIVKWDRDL
With B1, the dissociation constant Kd was determined as 15.1 nM.

Molecule B2 yielded a Kd of 28.7 nM.

The molecule B3 had a Kd of 17.4 nM.

On to B4, for which the Kd turned out to be 31.1 nM.

Consider B5, for which the Kd is 28.1 nM.

On to B6, for which the dissociation constant Kd was found to be 18.5 nM.

For orientation: Kd means the concentration at which binding is half-saturated. The low end stands for tighter binding, the high end for weaker binding.
